Laboratory results from article PMC6548137, “Structural basis for the nuclear import and export functions of the biportin Pdr6/Kap122” (The Journal of Cell Biology, 2019).

T1: H14-ZZ-bdSUMO-tagged Pdr6 (S. cerevisiae, UniProt P32767 2-1081)
T1 construct: Pdr6/Kap122, S. cerevisiae; also called tagged NTR; source: E. coli Top10 F', purified (Ni(II) chelate, imidazole elution); not shown: His14, N-terminal, kept; ZZ, N-terminal, kept; bdSUMO, N-terminal, kept
T1 sequence: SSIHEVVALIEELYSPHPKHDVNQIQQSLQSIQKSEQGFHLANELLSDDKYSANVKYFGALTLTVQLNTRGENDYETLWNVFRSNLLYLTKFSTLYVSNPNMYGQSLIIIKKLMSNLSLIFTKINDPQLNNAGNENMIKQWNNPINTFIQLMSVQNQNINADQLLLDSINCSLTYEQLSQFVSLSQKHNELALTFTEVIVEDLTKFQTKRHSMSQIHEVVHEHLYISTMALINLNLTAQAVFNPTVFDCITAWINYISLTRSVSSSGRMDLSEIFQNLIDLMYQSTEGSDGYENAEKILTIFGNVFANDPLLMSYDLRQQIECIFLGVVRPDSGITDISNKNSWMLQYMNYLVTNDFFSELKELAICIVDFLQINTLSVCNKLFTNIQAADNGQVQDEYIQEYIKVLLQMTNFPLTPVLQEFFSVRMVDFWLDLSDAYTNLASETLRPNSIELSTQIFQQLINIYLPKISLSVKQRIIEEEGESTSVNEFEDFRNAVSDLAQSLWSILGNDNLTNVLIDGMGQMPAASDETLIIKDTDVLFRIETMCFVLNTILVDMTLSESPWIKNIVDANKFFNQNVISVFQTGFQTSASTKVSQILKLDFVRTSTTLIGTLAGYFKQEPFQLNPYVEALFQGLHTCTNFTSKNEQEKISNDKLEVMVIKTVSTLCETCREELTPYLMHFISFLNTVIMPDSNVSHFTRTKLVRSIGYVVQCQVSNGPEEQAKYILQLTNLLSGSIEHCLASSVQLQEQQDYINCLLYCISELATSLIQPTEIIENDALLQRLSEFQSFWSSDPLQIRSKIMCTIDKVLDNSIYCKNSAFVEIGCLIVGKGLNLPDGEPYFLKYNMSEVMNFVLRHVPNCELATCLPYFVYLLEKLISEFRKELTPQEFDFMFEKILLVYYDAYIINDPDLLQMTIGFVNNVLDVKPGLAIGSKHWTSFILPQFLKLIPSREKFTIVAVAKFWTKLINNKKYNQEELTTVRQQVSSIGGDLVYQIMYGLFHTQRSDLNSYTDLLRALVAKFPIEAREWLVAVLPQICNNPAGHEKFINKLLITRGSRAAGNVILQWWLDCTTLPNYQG

B1: Pdr6/Kap122 (S. cerevisiae), full length, tag removed (natural protein)
chain: MSSIHEVVALIEELYSPHPKHDVNQIQQSLQSIQKSEQGFHLANELLSDDKYSANVKYFGALTLTVQLNTRGENDYETLWNVFRSNLLYLTKFSTLYVSNPNMYGQSLIIIKKLMSNLSLIFTKINDPQLNNAGNENMIKQWNNPINTFIQLMSVQNQNINADQLLLDSINCSLTYEQLSQFVSLSQKHNELALTFTEVIVEDLTKFQTKRHSMSQIHEVVHEHLYISTMALINLNLTAQAVFNPTVFDCITAWINYISLTRSVSSSGRMDLSEIFQNLIDLMYQSTEGSDGYENAEKILTIFGNVFANDPLLMSYDLRQQIECIFLGVVRPDSGITDISNKNSWMLQYMNYLVTNDFFSELKELAICIVDFLQINTLSVCNKLFTNIQAADNGQVQDEYIQEYIKVLLQMTNFPLTPVLQEFFSVRMVDFWLDLSDAYTNLASETLRPNSIELSTQIFQQLINIYLPKISLSVKQRIIEEEGESTSVNEFEDFRNAVSDLAQSLWSILGNDNLTNVLIDGMGQMPAASDETLIIKDTDVLFRIETMCFVLNTILVDMTLSESPWIKNIVDANKFFNQNVISVFQTGFQTSASTKVSQILKLDFVRTSTTLIGTLAGYFKQEPFQLNPYVEALFQGLHTCTNFTSKNEQEKISNDKLEVMVIKTVSTLCETCREELTPYLMHFISFLNTVIMPDSNVSHFTRTKLVRSIGYVVQCQVSNGPEEQAKYILQLTNLLSGSIEHCLASSVQLQEQQDYINCLLYCISELATSLIQPTEIIENDALLQRLSEFQSFWSSDPLQIRSKIMCTIDKVLDNSIYCKNSAFVEIGCLIVGKGLNLPDGEPYFLKYNMSEVMNFVLRHVPNCELATCLPYFVYLLEKLISEFRKELTPQEFDFMFEKILLVYYDAYIINDPDLLQMTIGFVNNVLDVKPGLAIGSKHWTSFILPQFLKLIPSREKFTIVAVAKFWTKLINNKKYNQEELTTVRQQVSSIGGDLVYQIMYGLFHTQRSDLNSYTDLLRALVAKFPIEAREWLVAVLPQICNNPAGHEKFINKLLITRGSRAAGNVILQWWLDCTTLPNYQG

How the values were obtained:
Conditions in all cases: both partners purified
[1] = target: human RanQ69L (residues 5-180), GTP-bound (human, UniProt P62826 5-180, Q69L); experiment: crystal structure; Pdr6•RanGTP, hexagonal crystals, 18°C, 50 mM sodium acetate pH 5.5, 220 mM MgCl2, 19% pentaerythritol propoxylate, 10% 2-Methyl-2,4-pentanediol
[2] = target: B1; experiment: crystal structure; Pdr6•Ubc9, 18°C, 50 mM sodium cacodylate pH 5.7, 20 mM MgCl2, 3-5% ethanol
[3] = target: T1, H14-ZZ-bdSUMO-tagged Pdr6; experiment: pull-down; 1 µM H14-ZZ-bdSUMO-tagged NTR with 2 µM human or yeast Ubc9; retrieved via the tagged NTR by anti-Protein A beads, eluted by bdSENP1 protease, SDS-PAGE and Coomassie

binding result [1]	binding result [2]	binding result [3]	Binder
binds	–	–	B1
–	binds	binds	S. cerevisiae Ubc9, full length (enzyme, UniProt P50623 1-157, looked up, Ubc9, SUMO-conjugating E2 enzyme, S. cerevisiae, full length; residues 2-157 are in the model; Full length is said for the crystallised protein; also called yeast Ubc9; source: NEB Express cells, purified (Ni(II) chelate)) MSSLCLQRLQEERKKWRKDHPFGFYAKPVKKADGSMDLQKWEAGIPGKEGTNWAGGVYPITVEYPNEYPSKPPKVKFPAGFYHPNVYPSGTICLSILNEDQDWRPAITLKQIVLGVQDLLDSPNPNSPAQEPAWRSFSRNKAEYDKKVLLQAKQYSK
